In patent publication US10314894B2, “Treatment of cardio-renal disease using PCSK6” (THE CLEVELAND CLINIC FOUNDATION, priority 2014, dated 2019) one finds PCSK6-mediated activation cleavage data, which are given here for one molecule.

The test deals with T1, corin mutant R801A (Homo sapiens, UniProt Q9Y5Q5, R801A).
T1 construct: expressed in transfected cells; host or cells: HEK293
T1 sequence (Q9Y5Q5 1-1042 R801A): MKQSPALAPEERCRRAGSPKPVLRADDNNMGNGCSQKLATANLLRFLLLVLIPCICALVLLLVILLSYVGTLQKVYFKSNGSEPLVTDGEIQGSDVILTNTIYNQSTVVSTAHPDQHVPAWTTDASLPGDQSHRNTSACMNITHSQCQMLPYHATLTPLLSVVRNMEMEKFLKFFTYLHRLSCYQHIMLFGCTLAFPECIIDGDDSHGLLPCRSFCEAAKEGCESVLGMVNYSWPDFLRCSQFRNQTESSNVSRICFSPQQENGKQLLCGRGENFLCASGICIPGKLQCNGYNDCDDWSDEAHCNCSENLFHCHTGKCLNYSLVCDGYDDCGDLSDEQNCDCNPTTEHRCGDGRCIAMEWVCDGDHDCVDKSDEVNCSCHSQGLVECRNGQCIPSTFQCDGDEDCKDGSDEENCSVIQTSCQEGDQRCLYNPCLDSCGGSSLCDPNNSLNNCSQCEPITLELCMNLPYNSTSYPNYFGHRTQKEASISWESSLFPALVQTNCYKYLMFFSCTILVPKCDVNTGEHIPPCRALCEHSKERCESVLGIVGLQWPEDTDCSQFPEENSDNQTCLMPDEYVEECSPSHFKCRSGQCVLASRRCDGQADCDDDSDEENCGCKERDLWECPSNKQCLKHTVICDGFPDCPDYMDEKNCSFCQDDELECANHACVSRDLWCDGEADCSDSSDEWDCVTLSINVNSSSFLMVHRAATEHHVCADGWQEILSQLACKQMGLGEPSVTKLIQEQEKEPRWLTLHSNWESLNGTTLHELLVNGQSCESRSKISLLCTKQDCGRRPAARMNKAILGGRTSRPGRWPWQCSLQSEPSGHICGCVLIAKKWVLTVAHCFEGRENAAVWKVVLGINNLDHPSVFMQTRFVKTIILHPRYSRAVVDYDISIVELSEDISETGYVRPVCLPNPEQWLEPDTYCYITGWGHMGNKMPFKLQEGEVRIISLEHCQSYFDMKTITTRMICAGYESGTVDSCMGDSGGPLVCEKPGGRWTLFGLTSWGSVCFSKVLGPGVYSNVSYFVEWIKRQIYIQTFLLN
Nature of the test: PCSK6-mediated corin activation in HEK293 cells, corin mutant R801A (control). Format: cell-based. The conditions noted are these: corin mutant R801A lacking the cleavage site. From the text: Plasmids expressing human corin WT and mutants R801A, S985A, T555I, Q568P, T555I/Q568P, K317E, S472G and R539C were reported previously. Dong, N. et al., J Biol Chem 289, 17909-17916 (2014); Knappe et al., J Biol Chem 278, 52363-52370 (2003); Wu et al., J Biol Chem 277, 16900-16905. (2002). Plasmids expressing human PCSK1-9 were made by cloning respective cDNAs into pcNDA3.1 vector. Recombinant corin and PCSK proteins encoded by these plasmids contained a C-terminal V5 or flag tag for protein detection in Western blotting.
HEK293 and HL-1 cells were transfected with corin or PCSK6 expression plasmids. After 48-72 h, cells were lysed in a buffer containing 25 mM Tris-HCl, pH 7.4, 150 mM NaCl, 1 mM EDTA, 1% (v/v) NP-40, and 1% (v/v) protease inhibitor cocktail. Recombinant corin and PCSK6 proteins were immunoprecipitated with an anti-V5 or anti-flag antibody. Western blotting was carried out to analyze corin expression and activation or PCSK6 expression with or without reducing agents. Percentage of corin activation (corin-p vs. corin fragments) was quantified by densitometric analysis of Western blots.

B1: proprotein convertase subtilisin/kexin-6 (protein, listed as Homo sapiens)
chain: MPPRAPPAPGPRPPPRAAAATDTAAGAGGAGGAGGAGGPGFRPLAPRPWRWLLLLALPAACSAPPPRPVYTNHWAVQVLGGPAEADRVAAAHGYLNLGQIGNLEDYYHFYHSKTFKRSTLSSRGPHTFLRMDPQVKWLQQQEVKRRVKRQVRSDPQALYFNDPIWSNMWYLHCGDKNSRCRSEMNVQAAWKRGYTGKNVVVTILDDGIERNHPDLAPNYDSYASYDVNGNDYDPSPRYDASNENKHGTRCAGEVAASANNSYCIVGIAYNAKIGGIRMLDGDVTDVVEAKSLGIRPNYIDIYSASWGPDDDGKTVDGPGRLAKQAFEYGIKKGRQGLGSIFVWASGNGGREGDYCSCDGYTNSIYTISVSSATENGYKPWYLEECASTLATTYSSGAFYERKIVTTDLRQRCTDGHTGTSVSAPMVAGIIALALEANSQLTWRDVQHLLVKTSRPAHLKASDWKVNGAGHKVSHFYGFGLVDAEALVVEAKKWTAVPSQHMCVAASDKRPRSIPLVQVLRTTALTSACAEHSDQRVVYLEHVVVRTSISHPRRGDLQIYLVSPSGTKSQLLAKRLLDLSNEGFTNWEFMTVHCWGEKAEGQWTLEIQDLPSQVRNPEKQGKLKEWSLILYGTAEHPYHTFSAHQSRSRMLELSAPELEPPKAALSPSQVEVPEDEEDYTAQSTPGSANILQTSVCHPECGDKGCDGPNADQCLNCVHFSLGSVKTSRKCVSVCPLGYFGDTAARRCRRCHKGCETCSSRAATQCLSCRRGFYHHQEMNTCVTLCPAGFYADESQKNCLKCHPSCKKCVDEPEKCTVCKEGFSLARGSCIPDCEPGTYFDSELIRCGECHHTCGTCVGPGREECIHCAKNFHFHDWKCVPACGEGFYPEEMPGLPHKVCRRCDENCLSCAGSSRNCSRCKTGFTQLGTSCITNHTCSNADETFCEMVKSNRLCERKLFIQFCCRTCLLAG
modifications: C-terminal FLAG tag
Consider B1, for which the PCSK6-mediated activation cleavage entry is recorded as “no activation cleavage was detected”.
